{"source": "the DeepSol protein solubility set", "data": [{"assay": "soluble on expression in E. coli; label from the status in PepcDB or PDB records", "values": [{"sequence": "MKTQRIIHPNIDIRKFPEVNTDFSMTDISMGDLHANALLFLNILVRQGIIAISPENYAKFAEIYTLPELQADYWGTEAPVFSAENKQERLEEIKKQYNALIAQIKIINTKKLIRLIGDELVDRGVIDYFILKLLQALYDQGADFEILLSNHGIEFVEACELFKENGNKLVAKRLGNIQHGNSFHALQEAIAAGAISNEEVLNIYHQVYKKHLKIISYSLDPDANEIKVFSHAGIGLNHIRGLARKFKVPYSEESAVDLAKTIDAINKKFAEKASSGEIHTLYTHDMMYRGYAGEHLNSTDEVVAATVWGREYGDLIRTSKKFKITFIHGHDSYDPEKVEHVTLNNQLGQFQNNVGDLYLYATNGMRAVPTQYLNPDKKIQGSREKDRPDKPNDYVVKIHHTKPSFFKTSNPKITFPDSYKRIWDSADGDSNITKIKALLKDYTKEDSILGSFWGLIFTLHWGRHHVKSVHQIAQTKYTSVEAILSDLKALKPREGGSLDKRIKFIELQIIAQRCDSPEPQFNLK", "soluble on expression in E. coli": "not soluble"}, {"sequence": "MYSGFTREKSDLRTEDVEITKEPFTLLIMGIEDYATDGQNGRTDSLMFATVNPKTQKISLMSIPRDSRVPIVGKNKEDKINAAHAYGGEEMAIKTVEGFLKVPVDHYVKIDFQGFKGIVDAVGGVTVDVPFDFWERSDVDYYKKIQFKQGQQELNGEEALAYVRMRKQDPNGDYGRAARQRQLLAAVAQKLNSTSTVFKIKDLTSVVGKYIKTDIPISDGLALYKKLSGFDPSTIQTLKLEGEDKKIGGIYYFLPDPNGVEAVRNEIKKELGEKVTTQENSTTKTESTPSSNSNSNEKAKKETNRNQNKTPTDPPPSTNAHAEWIMRNQQLEHHHHHH", "soluble on expression in E. coli": "soluble"}, {"sequence": "MSLDSPTASSNGDLIEEIQASSTSTDPRTFTGLSIVEDIGDVVPVTDNASPALPVSLTDADGNDVVVEDVSRILPLDLYGTYSKTIAGLGLVDNIVGRTVSSTEPALADTEVVTTGGHTLNAEAILNLHPTLVIIDHSIGPREVIDQIRAAGVATVIMSPQRSIASIGDDIRDIASVVGLPEEGEKLAERSVAEVEEASTVVDELTPEDPLKMVFLYARGTGGVFFILGDAYGGRDLIEGLGGVDMAAEKGIMDLAPANAEALAELNPDVFVMMSEGLVSTGGIDGLMERPGIAQTTAGQNQRVLALPDGQSLAFGAQTGELLLRASRELYVQGGEGHHHHHH", "soluble on expression in E. coli": "soluble"}, {"sequence": "METKKTLREGYTTGSCATVATKAALTALITGQVQAEATIRLPIGRVVTFSLASCSFDGETATASVVKDGGDDPDATHGALIVSTVSWTSSPGVHIDGGEGVGRVTKPGLPVPVGEAAINPVPRQMIREAVNEVLAQYGLHRGVKVVISVPGGEEIAKKTLNPRLGIIGGISILGTRGIVVPFSTAAYRASIVQALQVAKANGCRHVVITTGGRSEKYAMQEYPHLPEEAFIEMGDFVGFTLKQCKRLGIKMVSMVGMMGKFSKVAQGVMMVHSKSAPVDFGFLAAIAEQAGACPELVAAVRGANTAAQVGDMMQEAGCTKFFELLCEACCQAALHEVGGGLTVATSIYTMNGQRLGKAVQTDGDDEVDRCRC", "soluble on expression in E. coli": "not soluble"}, {"sequence": "MAGDPMNDVSKASLPKAIFLMGPTASGKTALAIELRKVLPVELISVDSALIYRGMDIGTAKPNADELKAAPHRLLDIRDPSQAYSAADFRRDALAQMAEITAAGRIPLLVGGTMLYFKALLEGLSPLPSADPEVRSRIEQQAAELGWEALHQQLQEIDPVAAARIHPNDPQRLSRALEVFFISGKTLTELTQTSGDALPYQVHQFAIAPASRELLHQRIELRFHQMLASGFEAEVRALFARGDLHTDLPSIRCVGYRQMWSYIEGEISYDEMVYRGVCATRQLAKRQMTWLRGWEGVRWLDSENPDRARKEVLQVVGAIADLEHHHHHH", "soluble on expression in E. coli": "soluble"}, {"sequence": "GMINTKEDFLLLIKQIEQKSGYKKPKAFGIARLDRGQLNKNKILQASFALINYEQNFGSAAIMLEAFMQRGVEIDFNASEFVQTLKLEDIDFALSCFKPFLEEDGHQNIDLLKIIKDKFKDDEFSFVCLFEDKEPLSVESIYLKLYLLSTKKVPLRSINLNGAFGLLSNVAWSDDKPIELEYLRANEMRLKMSNQYPKIDFVDKFPRFLAHIIPEDNTRILESSKVRMGASLAAGTTIMPGASYVNFNAGTTGACMVEGRISSSAIVGEGSDVGGGASILGVLSGTSGNAISVGKACLLGANSVTGIPLGDNCIVDAGIAVLEGTKFLLKDAEELAKLNPYFNFDKEIYKGLELKGLNGLHFRQDSISGAMIVALNKKAVKLNEALH", "soluble on expression in E. coli": "soluble"}, {"sequence": "MSVIAITGSASGIGAALKELLARAGHTVIGIDRGQADIEADLSTPGGRETAVAAVLDRCGGVLDGLVCCAGVGVTAANSGLVVAVNYFGVSALLDGLAEALSRGQQPAAVIVGSIAATQPGAAELPMVEAMLAGDEARAIELAEQQGQTHLAYAGSKYAVTCLARRNVVDWAGRGVRLNVVAPGAVETPLLQASKADPRYGESTRRFVAPLGRGSEPREVAEAIAFLLGPQASFIHGSVLFVDGGMDALMRAKTF", "soluble on expression in E. coli": "soluble"}, {"sequence": "MSQEFVGRWKLIHSENFEEYMKEVGVGLITRKAAANLKPTLEIKVEGDLWYSNQYSTFKNTTLSFKLGQEFDETTPDGRTVKSVVNFENGKFIHIQKKIKDSDKESIITRWLEGDKLITTLESGSVVSRREYVRE", "soluble on expression in E. coli": "not soluble"}, {"sequence": "MGSDKIHHHHHHMYRVIELGHVISAPFAGEILRHLGFEVIKIEPLLGDPSRKDDVLVDSMFVFNNRGKRSISVDLRKEKGKEVFLRLVRNSHVLIENLSPHVMDRLGLSDDVIFSTNPSLVYCSIKGYPKGKYENLPAFGTIIEAESGIMDANGKARLPASITDMNASTYCVITILWALLMKKPGHYRVSIIQANTVWLGYYLIAYQKYGKLFEAGKDELPFWAPYELFKSSEEKEFYLAVNDNEKFTKLCKALGLEDLLADERFKTNADRVRNRKILHEKLQQKFSSMKLEEIMNILRYNDIPVGKLNNLKDLISNELVEWDTFRNVQVPKLPLPGSLNSQHVPNVGEDTLYILKELGYSENEIESMIKENVINYNK", "soluble on expression in E. coli": "not soluble"}, {"sequence": "GPGSMVQRTLFDFVSKKGDNATTEEVGSKTESGQPSASSRKRTAEDQVANGGASNLTRARVAKENNGALASLIVDPGWEAFLKPLTTSSNFERIEKFLEGELNAGKTILPPREMIFSAFNSTPLDMLKVVLLGQDPYHNVGQAHGLCFSVLPGVPPPPSLINMYKELATDIPGFVAPQHGYLQHWAEQGVLMLNATLTVEIHKANSHATCGWQTFTDDVIRLLSEKHKNPLVFLLWGGFAKRKISLIDRKRHVVIECAHPSPLSAAKWWGSRPFSKCNTALVEKKLSPIDWKLPVCLSKGK", "soluble on expression in E. coli": "not soluble"}, {"sequence": "MSFALLMASGGLDSTTVAYWLTERGVQFIPVFFDYGQHCVETEWETLKEVLPASAAHPERNDISDLFRGSKSRLITEADLWNEEVKDEDLYVPYRTLLFYSAAAARAQTLGAFEVYTGFINSNRAKEIDCTAEFMNKLDALTDSVGPVRFLSPFRFWSKSEVAKESIRLGVPIGRTFSCQAASLMPCGACPNCVERLAALRETGLLA", "soluble on expression in E. coli": "not soluble"}, {"sequence": "SAQKEEAAVATEAASQNGEDLENLDDPEKLKELIELPPFEIVTGERLPANFFKFQFRNVEYSSGRNKTFLCYVVEAQGKGGQVQASRGYLEDEHAAAHAEEAFFNTILPAFDPALRYNVTWYVSSSPCAACADRIIKTLSKTKNLRLLILVGRLFMWEEPEIQAALKKLKEAGCKLRIMKPQDFEYVWQNFVEQEEGESKAFQPWEDIQENFLYYEEKLADILK", "soluble on expression in E. coli": "soluble"}, {"sequence": "INAGTDLDNPKDLEVSDPTETTLSLRWRRPVAKFDRYRLTYVSPSGKKNEMEIPVDSTSFILRGLDAGTEYTISLVAEKGRHKSKPTTIKGSTVVGSPKGISFSDITENSATVSWTPPRSRVDSYRVSYVPITGGTPNVVTVDGSKTRTKLVKLVPGVDYNVNIISVKGFEESEPISGILKTALDS", "soluble on expression in E. coli": "soluble"}, {"sequence": "MAEFASAEFDRMLAEARSMLDAMRSGRSAPSDEEEVKGVGEAADGRVTVTVNSSGLLESVELNPRLLRLPAEEIGEHIVTAVNAALQDFRTKANQAVGAASVDLNALAASMQELQDQSVRQMAQIGQAFNELLTKLDGMR", "soluble on expression in E. coli": "not soluble"}, {"sequence": "MILYDAIMYKYPNAVSRKDFELRNDGNGSYIEKWNLRAPLPTQAELETWWEELQKNPPYEPPDQVELLAQELSQEKLARKQLEELNKTLGNELSDIKLSLLSLKGDYAELEHHHHHH", "soluble on expression in E. coli": "soluble"}, {"sequence": "MGSDKIHHHHHHMKTDTEWLLCDFHVHTNMSDGHLPLGEVVDLFGKHGVDVVSITDHIVDRRTLEQRKRNGEPLGAITEDKFQDYLKRLWREQKRAWEEYGMILIPGVEITNNTDLYHIVAVDVKEYVDPSLPVEEIVEKLKEQNALVIAAHPDRKKQDEEHLSWYLWANMERFKDTFDAWEIANRDDLFNSVGVKKYRYVANSDFHELWHVYSWKTLVKSEKNIEAIKEAIRKNTDVAIYLMRKNRLSSLSDVI", "soluble on expression in E. coli": "soluble"}, {"sequence": "MFWVFLVRHGEAYPEEVDPQRPLTEKGRKDTEKIAKALKNFGVKPELIYTSPKLRAKQTAKIIANILGVEKIRETELLLPNTDPKETSKLIDGKNVVLCGHLPNLARLFSLLYLSEDNERRVNLSTSGALVLKWKDFWVLELLLEPSVL", "soluble on expression in E. coli": "not soluble"}, {"sequence": "MSLNNNDLVAKLWKLCDNLRDGGVSYQNYVNELASLLFLKMCKETGQEAEYLPEGYRWDDLKSRIGQEQLQFYRKMLVHLGEDDKKLVQAVFHNVSTTITEPKQITALVSNMDSLDWYNGAHGKSRDDFGDMYEGLLQKNANETKSGAGQYFTPRPLIKTIIHLLKPQPREVVQDPAAGTAGFLIEADRYVKSQTNDLDDLDGDTQDFQIHRAFIGLELVPGTRRLALMNCLLHDIEGNLDHGGAIRLGNTLGSDGENLPKAHIVATNPPFGSAAGTNITRTFVHPTSNKQLCFMQHIIETLHPGGRAAVVVPDNVLFEGGKGTDIRRDLMDKCHLHTILRLPTGIFYAQGVKTNVLFFTKGTVANPNQDKNCTDDVWVYDLRTNMPSFGKRTPFTDEHLQPFERVYGEDPHGLSPRTEGEWSFNAEETEVADSEENKNTDQHLATSRWRKFSREWIRTAKSDSLDISWLKDKDSIDADSLPEPDVLAAEAMGELVQALSELDALMRELGASDEADLQRQLLEEAFGGVKEEGGSHHHHHH", "soluble on expression in E. coli": "soluble"}, {"sequence": "MGSDKIHHHHHHSNPTRSIPATDAVSSATAGKKMGLQTYSLGQELLQDMPNGLNRLAKAGYTDLEIFGYREDTGKFGDYNPKNTTFIASKDYKKMVDDAGLRISSSHLTPSLREYTKENMPKFDEFWKKATDIHAELGVSCMVQPSLPRIENEDDAKVVSEIFNRAGEITKKAGILWGYHNHSNEFKRVLKAGEKPEQNPNPWAPPKGTYIEELFLKNTDPDKVMFELDVYWAVMGQQDPVEWMENYPNRFKLLHIKDRWIIGDSGMMNFPNIFKKAYEIGILGYYVELEGDKKGRTQFEGVEKSAAYLQAAPFVK", "soluble on expression in E. coli": "not soluble"}]}]}
